Reference: US20220135661A1 (University of Pennsylvania, published 2022)

Legend:
[1] = target: T1, recombinant human preformed α-Synuclein fibrils (human, UniProt P37840 1-140); test: sandwich ELISA, mAb coated, MJF-R1 reporter; human PFFs against human monomer as reference
Protocol: FIG. 1A is a pair of graphs depicting the affinity of mAb Syn9063.26.22 for human monomeric (top) and fibrillar (PFF) (bottom) α-Syn measured by sandwich ELISA. 384-well plates were coated with 0.3 μg of the indicated mAb. After blocking, these were incubated with various concentrations of α-Syn monomer or PFFs (expressed as monomer equivalent concentration) as indicated. MJF-R1 was used as a reporter antibody to determine affinity for each form of α-Syn. FIG. 1B is a pair of graphs depicting the affinity of mAb Syn9048.04.07 for human monomeric (top) and fibrillar (PFF) (bottom) α-Syn measured by sandwich ELISA. 384-well plates were coated with 0.3 μg of the indicated mAb. After blocking, these were incubated with various concentrations of α-Syn monomer or PFFs (expressed as monomer equivalent concentration) as indicated. MJF-R1 was used as a reporter antibody to determine affinity for each form of α-Syn. FIG. 1C is a pair of graphs depicting the affinity of mAb Syn9068.13.01 for human monomeric (top) and fibrillar (PFF) (bottom) α-Syn measured by sandwich ELISA. […] After blocking, these were incubated with various concentrations of α-Syn monomer or PFFs (expressed as monomer equivalent concentration) as indicated. […]
The affinity of three mAbs from the 9000 series for human monomeric and fibrillar (PFF) α-Syn was measured by sandwich ELISA. […]

[2] = target: human α-Synuclein (form not stated) (human, UniProt P37840 1-140); test: direct ELISA; human αSyn against mouse αSyn as reference
[3] = target: T1, recombinant human preformed α-Synuclein …; test: cell-based or functional assay
[4] = target: recombinant mouse preformed α-Synuclein fibrils (mouse, UniProt O55042 1-140); test: cell-based or functional assay

Row | Binder | Selective binding to PFFs (fold over monomer) [1] | Recognition of Hu vs. Ms αSyn (fold) [2] | Inhibition in neuron assay (Hu PFFs) [3] | Inhibition in neuron assay (Ms PFFs) [4]
1 | Syn9063.26.22 (antibody, IgG2b, V domains shown, also called mAb Syn9063.26.22; MHC978) VH: QVQLKQSGPGLVQPSQSQSLTCTVSGFSLTSYGVHWVRQPLGKGLEWLGVIWSGGSTDYNAAFISRLSIRKDNSKSQVFFKMNSLQADDTAIYYCARTFTTSTSAWFAYWGQGTLVTVSA VL: QIVLTQSPAIMSASPGEKVTMTCSASSSVSYMYWYQQKPGSSPRLLIYDTSKLASGVPVRFSGSGSGTSYSLTISRMEAEDAATYYCQQWRSYPPTFGAGTKLELK | 100 fold | 1.1 fold | 80% | 50%
2 | Syn9068.13.01 (antibody, IgG1, V domains shown, also called mAb Syn9068.13.01; MHC993) VH: EVHLVESGGGLVQPKGSLKLSCAASGFTFNTYAMHWVRQAPGKGLEWVARIRNKSNNYATYYADSVKDRFTISRDDSQSMLFLQMDNLKTEDTAIYYCVRGGLSPFDYWGQGTTLTVSS VL: QIVLTQSPAIMSASPGEKVTMTCSASSSVTYMHWYQQKSGTSPKRWIYDTSKLASGVPARFSGSGSGTSYSLTISSMEAEDAATYYCQQWSSNPPTFGGGTKLEIR |  | 1 fold | 85% | ~90%
3 | Syn9048.04.07 (antibody, IgG1, V domains shown, also called mAb Syn9048.04.07; MHC992) VH: QVQLQQSGPELVKPGASVRISCKASGYTFTTFYLHWVKQRPGQGLEWIGWIYPVNVKIKYSERFKGKATLTADKSSSTAYMQLGSLTSEDSAVYFCVRGGRGLDYWGQGTTLTVSS VL: NIMMTQSPSSLAVSAGEKVTMSCKSSQSVLYSSNQKNYLAWYQQKPGQSPKMLIYWASFRESGVPDRFTGSGSGTDFTLTISSVQAEDLAVYYCHQYLSLFTFGSGTKLEIK | 30 fold | 1.4 fold | > 95% | > 95%
